In the data set the test system is T1, peptide substrate SEQ ID NO: 1 Lys-Lys-Gly-Phe-Pro-Arg-Gly-Gly-Asp-Cys.
T1 sequence: KKGFPRGGDC

The source of these data is patent publication US20170226560.

Regarding trypsin, the “limit of detection of trypsin (750 nM peptide, 60 min pre-exposure, 20 nm gold nanoparticles)” value is “the limit of detection of the colloidal gold nanoparticle-based colorimetric assay developed in the present invention for sensing trypsin is about 20 pM of trypsin”; the “limit of detection of trypsin (750 nM peptide, 3 hours pre-exposure, 20 nm gold nanoparticles)” value is given as “from 20 pM to approximately 2 to 10 pM”; the “limit of detection of trypsin (750 nM peptide, 3 hours pre-exposure, 30 nm gold nanoparticles)” value is listed as “further improved from about 2 to 10 pM to a range of from 500 fM to 2 pM”; the “ratio of the absorbance at 650 nm/absorbance at 520 nm (750 nM peptide, 60 min pre-exposure, trypsin up to 2 nM)” value was “As the amount of trypsin is increased the absorbance band shifts toward what the gold nanoparticles show in the absence of any peptide and the ratio approaches a value of about 0.05”. Moreover, the “time for complete hydrolytic cleavage (gold nanoparticle aggregation, ratio of absorbance at 650 nm to 520 nm; 1000 nM peptide, 200 pM trypsin, 20 C)” value is on record as “it took more than 60 min for complete hydrolytic cleavage of a solution of 1000 nM of the peptide substrate SEQ ID NO: 1 Lys-Lys-Gly-Phe-Pro-Arg-Gly-Gly-Asp-Cys by trypsin at a concentration of 200 pM”.
